{
  "source": "paper PMC4739419",
  "about": "“Mutations in the nucleotide binding and hydrolysis domains of Helicobacter pylori MutS2 lead to altered biochemical activities and inactivation of its in vivo function” (BMC Microbiology, 2016)",
  "molecules": {"B1": {"name": "HpMutS2-E413A (enzyme)", "chain": "MSDAPKRSLNPTLMMNNNNTPPKPLEESLDLKEFIALFKTFFAKERDTIALENDLKQTFTYLNEVDAIGLPTPKSVKESDLIIIKLTKLGTLHLDEIFEIVKRLHYIVVLQNAFKTFTHLKFHERLNAIVLPPFFNDLIALFDDEGKIKQGANATLDALNESLNRLKKESVKIIHHYARSKELAPYLVDTQSHLKHGYECLLLKSGFSGAIKGVVLERSANGYFYLLPESAQKIAQKIAQIGNEIDCCIVEMCQTLSHSLQKHLLFLKFLFKEFDFLDSLQARLNFAKAYNLEFVMPSFTQKKMILENFSHPILKEPKPLNLKFEKSMLAVTGVNAGGKTMLLKSLLSAAFLSKHLIPMKINAHHSIIPYFKEIHAIINDPQNSANNISTFAGRMKQFSALLSKENMLLGVDAIELGTDADEASSLYKTLLEKLLKQNNQIIITTHHKRLSVLMAENKEVELLAALYDEEKERPTYTFLKGVIGKSYAFETALRYGVPHFLIEKAKTFYGEDKEKLNVLIENSSALERELKQKNEHLENALKEQEYLKNAWLLEMEKQKEIFHNKKLELEKSYQQALNILKSEVASKDTSSMHKEIHKASEILSKHKTNQEIPQIITNFQANEKARYKNESVLIVQILDKGYYWIETELGMRLKAHGSLLKKIQKPPKNKFKPPKTTIPKPKEASLRLDLRGQRSEEALDLLDAFLNDALLGGFEEVLICHGKGSGILEKFVKEFLKNHPKVVSFSDAPINLGGSGVKIVKL", "notes": "also called Walker-B mutant"}, "B2": {"name": "HpMutS2: Helicobacter pylori MutS2 (1-762), C-terminally His6-tagged wild-type protein, nuclease and ABC ATPase (protein)", "chain": "MSDAPKRSLNPTLMMNNNNTPPKPLEESLDLKEFIALFKTFFAKERDTIALENDLKQTFTYLNEVDAIGLPTPKSVKESDLIIIKLTKLGTLHLDEIFEIVKRLHYIVVLQNAFKTFTHLKFHERLNAIVLPPFFNDLIALFDDEGKIKQGANATLDALNESLNRLKKESVKIIHHYARSKELAPYLVDTQSHLKHGYECLLLKSGFSGAIKGVVLERSANGYFYLLPESAQKIAQKIAQIGNEIDCCIVEMCQTLSHSLQKHLLFLKFLFKEFDFLDSLQARLNFAKAYNLEFVMPSFTQKKMILENFSHPILKEPKPLNLKFEKSMLAVTGVNAGGKTMLLKSLLSAAFLSKHLIPMKINAHHSIIPYFKEIHAIINDPQNSANNISTFAGRMKQFSALLSKENMLLGVDEIELGTDADEASSLYKTLLEKLLKQNNQIIITTHHKRLSVLMAENKEVELLAALYDEEKERPTYTFLKGVIGKSYAFETALRYGVPHFLIEKAKTFYGEDKEKLNVLIENSSALERELKQKNEHLENALKEQEYLKNAWLLEMEKQKEIFHNKKLELEKSYQQALNILKSEVASKDTSSMHKEIHKASEILSKHKTNQEIPQIITNFQANEKARYKNESVLIVQILDKGYYWIETELGMRLKAHGSLLKKIQKPPKNKFKPPKTTIPKPKEASLRLDLRGQRSEEALDLLDAFLNDALLGGFEEVLICHGKGSGILEKFVKEFLKNHPKVVSFSDAPINLGGSGVKIVKL", "modifications": "left off: His6, C-terminal, state not stated", "notes": "Helicobacter pylori MutS2 (1-762), C-terminally His6-tagged wild-type protein, nuclease and ABC ATPase"}},
  "key": {"chymotrypsin": {"test_system": "chymotrypsin", "assay": "Limited proteolysis with chymotrypsin", "settings": "37 °C; for effect of nucleotide pre-incubation on proteolysis: pre-incubation with ADP, ATP or ATPγS 1 mM, 15 min", "procedure": "(§1) Fig. 4 Nucleotide and mutation induced conformational changes in HpMutS2. a Limited proteolysis. Proteins (4 μM) either free or pre-incubated with nucleotides (1 mM) were incubated with chymotrypsin (1.25 ng) for 30 min at 37 °C. All proteolysis reactions were performed in 1X buffer A lacking magnesium. Reactions were stopped by adding a protease inhibitor cocktail and the products were separated on SDS-PAGE (10 %). Lane M: Molecular weight marker. b Thermal stability profiles of wild-type HpMutS2, HpMutS2-G338R, and HpMutS2-E413A. Proteins (1 μM) dialyzed in 50 mM Tris-Cl and 100 mM NaCl were subjected to thermal denaturation and spectra were recorded at 222 nm using Jasco-815 spectropolarimeter\nHpMutS2 (4 μM) was incubated with chymotrypsin (1.25 ng) or in buffer A lacking magnesium at 37 °C for 30 min. The reactions were stopped by addition of protease inhibitor cocktail (Sigma) and the proteolyzed products were separated on SDS-PAGE (10 %). Nucleotide cofactors (1 mM) were pre-incubated with the proteins for 15 min at 37 °C before addition of chymotrypsin. The heat denaturation of proteins was performed by heating them at 95 °C for 10 min. All the reactions were performed in 1X buffer A. Protein bands were detected by staining with Coomassie Brilliant Blue."}, "Single-stranded DNA [1]": {"test_system": "Single-stranded DNA", "assay": "Electrophoretic mobility shift assay (EMSA)", "type": "binding", "settings": "for Kd: read-out: DNA binding affinity (dissociation constant)", "procedure": "(§2) Fig. 5 Effect of nucleotide cofactors on DNA binding activity of HpMutS2 and mutants. Electrophoretic mobility shift assays were performed by incubating radiolabeled DNA substrates (0.16 nM) with increasing concentrations of proteins as described in Methods section. Nucleotides (1 mM) were added separately to the reaction mixtures. After incubation of 30 min on ice, the reaction mixtures were electrophoresed on native PAGE (8 %) at 4 °C. (a, panel 1–6) Interaction of HpMutS2 and mutants with single-stranded DNA. b-g Plots of percentage of bound DNA substrate (ssDNA and Holliday junction) versus protein concentration. The percentage binding was calculated by measuring the depletion in substrate DNA considering DNA without protein as 100 %. Error bars represent standard deviation from two or more different experiments. Schematic representation of DNA substrates used are shown at the left side of figures\n(§3) Radiolabeled DNA substrates (0.16 nM) were incubated with increasing concentrations of HpMutS2 and mutants in buffer A with 1X BSA (0.1 μg/μl). ATP, ADP, and ATPγS (1 mM each) were added separately to the reaction mixture. The NaCl concentration was maintained to 110 mM by adding storage buffer C to the reaction mixture. After incubation of 30 min on ice, the reaction mixtures were electrophoresed on native PAGE (8 %) at 4 °C. The gels were transferred on to Whatman 3 mm paper and dried under vacuum at 80 °C for 45 min. The gels were visualized by phosphorimaging and quantified using Image Gauge (Version 3.0). The dissociation constants were determined by non-linear regression analysis and calculated by plotting the percentage of bound DNA versus concentration of protein using “One site - Specific binding with Hill slope” equation of the GraphPad Prism 5 software."}, "Holliday junction [2]": {"molecular_target": "Holliday junction", "assay": "Electrophoretic mobility shift assay (EMSA)", "type": "binding", "settings": "for Kd: read-out: DNA binding affinity (dissociation constant)", "procedure": "as §2, §3"}, "Single-stranded DNA [3]": {"test_system": "Single-stranded DNA", "assay": "Nuclease assay (urea-PAGE)", "type": "biochemical", "settings": "for DNA cleavage rate: No nucleotide, DNA 1 nM, protein 150 nM, 37 °C", "procedure": "(§4) Fig. 6 Effect of nucleotide cofactors on nuclease activity of HpMutS2 and mutants. Plots showing time dependent depletion of substrate DNA (a, b, c) Single-stranded DNA and d, e, f Holliday junction. DNA substrates (1 nM) were incubated with HpMutS2 and mutants (150 nM) at 37 °C. Reactions aliquots were removed at 0, 15, 30, 60, 90, and 120 min. The reactions were stopped using (50 mM EDTA + formamide dye) and the products were electrophoresed on urea-PAGE (15 %). The percentage reduction in substrate was calculated by considering DNA without protein as 100 %. Error bars represent standard deviation from two or more different experiments. (g, panel 1–6) Time dependent cleavage of Holliday junction by HpMutS2 and mutants. Reactions were performed as described in (A-F). Reactions aliquots were removed at 0, 15, 30, 60, 90, and 120 min\n(§5) Radiolabeled DNA substrates were incubated with HpMutS2 and mutants in buffer D (50 mM Tris pH 8.0, 50 mM NaCl, 1 mM DTT, and 5 mM MgCl2). ATP, ADP, and ATPγS (1 mM each) were added separately to the reaction mixtures. 20 μl reaction aliquots were reomoved at 0, 15, 30, 60, 90, and 120 min. Reactions were stopped by adding EDTA (50 mM) + formammide dye (98 % formamide, 0.1 % bromophenol blue and 0.1 % xylene cyanol). The DNA substrates were denatured at 95 °C for 15 min and the reaction mixtures were separated on denaturing polyacrylamide gel (15 %) containing urea (7 M). The results were visualized and analysed as described earlier. DNA cleavage rates were estimated by dividing the total product formed (pM) in linear range of enzymatic activity by corresponding incubation time (min)."}, "Holliday junction [4]": {"test_system": "Holliday junction", "assay": "Nuclease assay (urea-PAGE)", "type": "biochemical", "settings": "for DNA cleavage rate: No nucleotide, DNA 1 nM, protein 150 nM, 37 °C", "procedure": "as §4, §5"}, "[5]": {"assay": "Thermal denaturation monitored by CD at 222 nm", "type": "physicochemical", "settings": "for temperature of 50 % unfolding: 25–80 °C", "procedure": "as §1\nFreshly prepared proteins were dialyzed twice in buffer B for 4–6 h with at least two changes of the buffer. Far-UV CD spectra of proteins (1 μM) were obtained using a Jasco-815 spectropolarimeter equipped with a Peltier stage (Japan Spectroscopic Co., Japan) at 25 °C. The spectra were recorded between 200–300 nm with 20 mdeg sensitivity at a scan speed of 50 nm using 2 mm path length cuvette with a bandwidth of 2 nm. Control titrations were performed and all the CD spectra were corrected by subtracting control spectra. Thermal denaturation of the proteins was monitored at single wavelength (222 nm) by increasing temperature from 25 °C-80 °C. The percentage of unfolded protein was calculated by considering the protein at 25 °C as 100 % folded."}},
  "note": "Read-outs that look alike come from different tables or passages of the source.",
  "data": [
    {"molecule": "B1", "values": [
      {"measurement": "effect of nucleotide pre-incubation on proteolysis", "setting": "chymotrypsin", "result": "only a slight effect"},
      {"measurement": "susceptibility to proteolysis compared to the wild-type protein", "setting": "chymotrypsin; protein 4 μM, chymotrypsin 1.25 ng, 30 min, no nucleotide", "result": "much more resistant"},
      {"measurement": "fold reduced affinity compared to wild-type", "setting": "Single-stranded DNA [1]; no nucleotide", "result": "> 4", "unit": "fold"},
      {"measurement": "Kd", "setting": "Holliday junction [2]; + ADP 1 mM", "result": "46.4 ± 5.6", "unit": "nM"},
      {"measurement": "Kd", "setting": "Holliday junction [2]; + ATP 1 mM", "result": "31.7 ± 3.34", "unit": "nM"},
      {"measurement": "Kd", "setting": "Holliday junction [2]; No nucleotide", "result": "30.8 ± 1.97", "unit": "nM"},
      {"measurement": "fold reduced affinity compared to wild-type", "setting": "Holliday junction [2]; no nucleotide", "result": "~ 2 fold"},
      {"measurement": "DNA cleavage rate", "setting": "Single-stranded DNA [3]", "result": "6.50 ± 0.55", "unit": "pM/min"},
      {"measurement": "fold reduced nuclease activity compared to wild-type", "setting": "Single-stranded DNA [3]; no nucleotide", "result": "~ 4 fold"},
      {"measurement": "DNA cleavage rate", "setting": "Holliday junction [4]", "result": "4.92 ± 1.25", "unit": "pM/min"},
      {"measurement": "fold reduced nuclease activity compared to wild-type", "setting": "Holliday junction [4]; no nucleotide", "result": "~ 4 fold"},
      {"measurement": "temperature of 50 % unfolding", "setting": "[5]", "result": "~ 50 °C"},
      {"measurement": "thermal stability compared to the other variants", "setting": "[5]; higher temperatures", "result": "more unstable"}
    ]},
    {"molecule": "B2", "values": [
      {"measurement": "effect of nucleotide pre-incubation on proteolysis", "setting": "chymotrypsin", "result": "proteolysis was significantly reduced"},
      {"measurement": "Kd", "setting": "Single-stranded DNA [1]; + ADP 1 mM", "result": "17.3 ± 2.89", "unit": "nM"},
      {"measurement": "Kd", "setting": "Single-stranded DNA [1]; + ATPγS 1 mM", "result": "11.4 ± 0.19", "unit": "nM"},
      {"measurement": "fold reduced ssDNA binding in presence of ATP", "setting": "Single-stranded DNA [1]; ATP 1 mM, at lower concentrations of protein", "result": "~ 5 fold"},
      {"measurement": "Kd", "setting": "Single-stranded DNA [1]; No nucleotide", "result": "21.5 ± 2.28", "unit": "nM"},
      {"measurement": "Kd", "setting": "Holliday junction [2]; + ADP 1 mM", "result": "22.6 ± 1.39", "unit": "nM"},
      {"measurement": "Kd", "setting": "Holliday junction [2]; + ATP 1 mM", "result": "20.8 ± 2.95", "unit": "nM"},
      {"measurement": "Kd", "setting": "Holliday junction [2]; + ATPγS 1 mM", "result": "22.5 ± 1.23", "unit": "nM"},
      {"measurement": "Kd", "setting": "Holliday junction [2]; No nucleotide", "result": "14.4 ± 0.82", "unit": "nM"},
      {"measurement": "DNA cleavage rate", "setting": "Single-stranded DNA [3]", "result": "24.82 ± 1.15", "unit": "pM/min"},
      {"measurement": "fold reduction of Holliday junction cleavage rate by ADP", "setting": "Holliday junction [4]; ADP 1 mM vs no nucleotide", "result": "~ 1.5 fold"},
      {"measurement": "fold reduction of Holliday junction cleavage activity in presence of ADP compared to ATP", "setting": "Holliday junction [4]; ADP vs ATP, 1 mM", "result": "~ 2.1 fold"},
      {"measurement": "fold stimulation of Holliday junction cleavage rate by ATP", "setting": "Holliday junction [4]; ATP 1 mM vs no nucleotide", "result": "~ 1.5 fold"},
      {"measurement": "fold reduced nuclease activity in presence of ATPγS", "setting": "Holliday junction [4]; ATPγS 1 mM vs no nucleotide", "result": "~ 1.5 fold"},
      {"measurement": "DNA cleavage rate", "setting": "Holliday junction [4]", "result": "26.49 ± 3.95", "unit": "pM/min"},
      {"measurement": "temperature of 50 % unfolding", "setting": "[5]", "result": "~ 50 °C"}
    ]}
  ]
}
